Measurements taken from publication PMC2903825.

Biological target: unmodified guanylate-binding protein 1 (hGBP1) (human) (UniProt P32455)
Test: concentration-dependent GTPase activity

## unmodified guanylate-binding protein 1 (hGBP1) (from UniProt P32455 1-592) (enzyme)
  Kd: 4 µM
